Reference: patent US20250296984A1, “THERAPEUTIC AND DIAGNOSTIC AGENTS AND USES THEREOF” (priority 2022, published 2025)
Marks after values point to notes of the source that are not given here.

How the values were obtained:
[1] = target: T1, HCMV US28 (strain DB) on CHO-US28-A1 cells (Human cytomegalovirus, UniProt P69332, D170N/D19A); assay: FACS surface binding to CHO-US28-A1 cells
T1 construct: expressed in transfected cells; host or cells: CHO-K1 (vector pCDH-EF1a-MCS)
Method: Plasmid construction was performed to create a US28-overexpressing cell line. The US28 sequence, identical to HCMV DB strain (Acc. Number: KT959235; SEQ ID No. 5 of this application), fused to a 6His tag at its C terminal part, was inserted into the pCDH-EF1a-MCS vector (Creative Biolabs, Shirley, NY 11967, USA). The plasmid construct was transfected to CHO-K1 cell line. The cells were collected 48 hours after transfection. The cell line was named as CHO-US28-A1-6His and its protein sequence (SEQ ID NO: 47) is the following:
Flowcytometry was used to analyze cell surface binding by the US28 antibodies. Upon cell harvest, adherent non-infected and US28 overexpressing or HCMV infected cells were washed three times with cell staining buffer (phosphate-buffered saline (PBS (Amresco, Cleveland, 44139, USA) added 0.5% BSA and 0.05% Sodium Azide (NaN3)). The cells were trypisinized and then resuspended in DMEM with 10% FBS to inhibit the action of trypsin. The cells were then pelleted at 400×g for 10 minutes and washed three times in cell staining buffer. Cell viability and cell concentration were measured by tryphan blue viability assay and a cell counter (Countess, Invitrogen, Carlsbad, CA 92008, USA). The cell suspension was adjusted to 1×10^6 cells/mL with ice-cold cell staining buffer. The cells were blocked in 1 ml 10% FBS or 1% BSA in PBS per 1×10^6 cells, vortexed briefly, and incubated for 10-30 minutes to eliminate non-specific staining. The cells were then stained with the respective antibodies and appropriate negative controls.
The primary antibodies used were I) 13-5G6-1D3 (50 μg/ml) as a positive control; II) Monovalent and Bivalent VUN100 ScFvs 1:1 (50 μg/ml); III) test antibodies for the specified subclones (1:5).
The primary antibodies used were I) 13-5G6-1D3 1:50 to 50 μg/ml; and II) Commercial US28 polyclonal antibody (50 μg/ml), III) Monovalent and Bivalent VUN100 ScFvs (50 μg/ml) and for certain experiments, the appropriate isotype controls were included.
In both cases (ECD1 and ECD3), the antibodies were added to the cells, vortexed and incubated on ice for 15 to 30 minutes up to overnight and washed twice with cell staining buffer to remove any unbound antibodies. In addition, the CMV Immediate Early Antigen (IE) Alexa488 Ab, MAB810X, 1:50 was included to verify HCMV infected cells in one of the experiments. Because it binds to an intracellular, HCMV encoded protein, it was added after permeabilizing the cells in 70% ethanol for 30 min on ice.
1:500-1:5000 in cell staining buffer of the appropriate fluorescent-conjugated appropriate secondary antibodies were added and incubated on ice for 15-20 min in the dark. The cells were washed three times to remove any unbound antibodies. The cells were then fixed with 0.5% paraformaldehyde (PFA) for 30 min on ice and resuspended in 200-500 μL cell staining buffer for final flow cytometric analysis using an Accuri C6 flow cytometry system (BD Biosciences, San Jose, CA 95131, USA). Data analyses were performed using FlowJo software v8.8 (Treestar Inc. Ashland, OR 97520, USA).
Background levels were determined using the respective secondary antibodies (anti-mFc-FITC for the subclones, or anti-myc-PE for the VUN100 molecules) with CHO cells and CHO-US28 cells. Given that US28 is expressed on the cell surface, the cells were non-permeabilised for these experiments.

[2] = tested on: human cancer tissues and adjacent normal tissues; assay: Immunohistochemistry (IHC) on human cancer tissue micro-arrays
Method: Cytomegalovirus (CMV) control slides containing CMV positive lung tissue and CMV negative myometrium (product number #3240A) were obtained from Newcomer Supply Inc., Middleton, WI 53562-2579, USA. Tissue micro-arrays (TMAs) were obtained from US Biomax Inc., Derwood, MD 20855, USA, and included tumor tissues #BR1008b, #BS17016c, #BCN721b and normal tissues #FDA662a and heart tissues #HEN241a.
The paraffin sections were sequentially immersed into a. 100% xylene three times (5 min each); b. 100% ethanol twice (2 min each); c. 95% ethanol twice (2 min each). The slides were rinsed twice in water for 5 min to remove ethanol. […], the slides were immersed in 3% H2O2 for 5 minutes and washed thereafter twice (2×) with distilled water. The slides were then immersed in the working citrate buffer (pH 6.0) and covered with a lid. The buffer was heated in the microwave until it had boiled, and then kept in the steamer for 15 min.
The sections were cooled at room temperature for 30 min and washed with PBS. 5% BSA blocking solution was then added to the HIER treated samples and they were incubated at 37° C. for 30 min. The primary antibody was diluted according to the best results from the dilution gradient tests and added to the samples for incubation overnight at 4° C. or 37° C. for 1 h. The slides were then washed three times in PBS on the shaker. The secondary antibodies were used in 1:200 dilution, added to the samples and incubated at 37° C. for 30 min. The slides were washed three times (5 min each) in PBS on the shaker. Strept-Avidin Biotin Complex (SABC) HRP- or AP-conjugated reagents were added, and the samples were incubated in dark at room temperature. The samples were thereafter washed in distilled water, counter stained by hematoxylin, and then dehydrated through gradient ethanol from 70% to 100%, and cleared by 3 times in xylene, 5 min each. Slides were mounted by ACRYMOUNT (StatLab, MicKinney, TX 75069, USA) and cover-slipped. Digitized pictures were taken by Olympus VS120 scanner and analyzed by using OlyVia 3.2 software (Olympus Corporation, 20101 Tokyo, Japan) by senior Pathologist.
We thereafter studied the binding of US28-13-5G6-1D3 rAb to human cancer tissues by using IHC and confirmatory ISH analyses. The results were evaluated by a Senior Pathologist. We found specific staining of the US28-13-5G6-1D3 rAb on several cancer types. Among these were glioblastomas (e.g. glioblastoma grade 4), colonic cancer, rectum cancer, breast cancer (e.g. locally advanced breast cancer and its metastasis), oesophagus cancer, gastric/stomach cancer, pancreas cancer, liver cancer such as hepatocellular carcinoma, lung cancer, malignant pheochromocytoma and cervical cancer, showing for the first time a potential universal role of US28 in pathology of cancer. The staining intensity of different cancer cells were classified as negative=0, weakly positive=1+, moderately positive=2+ or strongly positive=3+. […] In the majority of tumors with a positive US28-13-5G6-1D3 rAb staining, the staining was generally positive in large parts of the tumor cells. The tumor positivity was confirmed by positive finding of HCMV DNA in nucleus of the tumor cells by using ISH. […] The IgG control Ab staining was used as negative control and was negative in all of the studied cancerous and normal tissues.

B1: US28-13-5G6-1D3: monoclonal antibody against ECD3 of HCMV US28; VH SEQ ID NO: 12, VL SEQ ID NO: 18; rAb is the recombinant product (antibody, V domains shown)
VH: EVKLVESGGGLVQPGGSLRLACATSGFTFTDYYMSWVRQPPGKALEWLGFIRSKANGYTTEYSASVKGRFTISRDNSQSILYLQMNTLRSEDSATYYCARDERRTAWLAYWGQGTLVTVSA
VL: DVLMTQTPLSLPVSLGDQASISCRSSQSIVHSNGNTYLDWYLQKPGQSPKLLIYKVSNRFSGVPDRFSGSGSGTDFTLKISRVEAEDLGVYYCFQGSHVPTWTFGGGTKLEIK
modifications: Mature form of VH sequence of 1D3, without the leader sequence; Mature form of VL sequence of 1D3, without the leader sequence
notes: monoclonal antibody against ECD3 of HCMV US28; rAb is the recombinant product
For B1, the “binding to CHO-US28-A1 cells relative to any of the other 9 clones” value ([1]; 1:50 w/v Ab dilution) was 8-10 fold, the CHO-US28-A1 cells bound/stained ([1]; comparison with commercial US28 Ab, FIG. 11A) was “more than 50%” and the staining of metastases ([2]; All TNBC (n=8) and HER2 positive (n=11) metastases) was “positive”. For the same molecule, the “samples positive for staining” value ([2]; Hepatocellular carcinomas) was 2/3, the “samples positive for staining” value ([2]; cervix cancer samples) was 2/3 and the “controls negative for staining” value ([2]; epithelial cells adjacent to colon adenocarcinoma) was 3/3. The “samples positive for staining” value ([2]; lung cancer samples) was 2/3, the “samples positive for staining” value ([2]; pancreas cancer samples) was 1/3 and the “number of samples with positive staining” value ([2]; rectum adenocarcinoma, 3 studied) was 3.

B2: 13-5G6-1D3: mouse monoclonal IgG1 kappa antibody against US28 ECD3; VH SEQ ID NO: 12, VL SEQ ID NO: 18 (antibody, V domains shown)
VH: EVKLVESGGGLVQPGGSLRLACATSGFTFTDYYMSWVRQPPGKALEWLGFIRSKANGYTTEYSASVKGRFTISRDNSQSILYLQMNTLRSEDSATYYCARDERRTAWLAYWGQGTLVTVSA
VL: DVLMTQTPLSLPVSLGDQASISCRSSQSIVHSNGNTYLDWYLQKPGQSPKLLIYKVSNRFSGVPDRFSGSGSGTDFTLKISRVEAEDLGVYYCFQGSHVPTWTFGGGTKLEIK
modifications: Mature form of VH sequence of 1D3, without the leader sequence; Mature form of VL sequence of 1D3, without the leader sequence
In the case of B2, the IHC staining ([2]; human malignant pheochromocytoma tumor (HCMV positive control), FIG. 19 B) is reported as “positive staining” and the “adjacent control breast tissues with no cytoplasmic staining” value ([2]; normal breast epithelial cells) is reported as 10/10.

B3: 13-5G6-1D3 rAb: recombinant antibody product of US28-13-5G6-1D3 produced in HEK293-F cells (antibody)
heavy: EVKLVESGGGLVQPGGSLRLACATSGFTFTDYYMSWVRQPPGKALEWLGFIRSKANGYTTEYSASVKGRFTISRDNSQSILYLQMNTLRSEDSATYYCARDERRTAWLAYWGQGTLVTVSAAKTTPPSVYPLAPGSAAQTNSMVTLGCLVKGYFPEPVTVTWNSGSLSSGVHTFPAVLQSDLYTLSSSVTVPSSTWPSETVTCNVAHPASSTKVDKKIVPRDCGCKPCICTVPEVSSVFIFPPKPKDVLTITLTPKVTCVVVDISKDDPEVQFSWFVDDVEVHTAQTQPREEQFNSTFRSVSELPIMHQDWLNGKEFKCRVNSAAFPAPIEKTISKTKGRPKAPQVYTIPPPKEQMAKDKVSLTCMITDFFPEDITVEWQWNGQPAENYKNTQPIMDTDGSYFIYSKLNVQKSNWEAGNTFTCSVLHEGLHNHHTEKSLSHSPGK
light: DVLMTQTPLSLPVSLGDQASISCRSSQSIVHSNGNTYLDWYLQKPGQSPKLLIYKVSNRFSGVPDRFSGSGSGTDFTLKISRVEAEDLGVYYCFQGSHVPTWTFGGGTKLEIKRADAAPTVSIFPPSSEQLTSGGASVVCFLNNFYPKDINVKWKIDGSERQNGVLNSWTDQDSKDSTYSMSSTLTLTKDEYERHNSYTCEATHKTSTSPIVKSFNRNEC
With B3 the “Binding Specificity (ratio of surface binding)” value ([1]; CHO-US28-A1 cells compared with US28 negative control CHO cells) was 21.5* and the “higher surface binding to US28 expressing CHO cells than control CHO cells” value ([1]; FIG. 7) was > 21 times.
